Experimental data taken from patent US20240279325A1 (Chugai, published 2024).
Numbering of substitutions follows the chain as printed. Names and notes keep the numbering of the source. Read-outs that look alike come from different tables or passages of the source.

Key:
human FcγRIIb = biological target: T1, human FcγRIIb (human, UniProt P31994 43-217); assay: SPR (Biacore), amount bound against IL6R-F652/IL6R-L x 100
T1 sequence: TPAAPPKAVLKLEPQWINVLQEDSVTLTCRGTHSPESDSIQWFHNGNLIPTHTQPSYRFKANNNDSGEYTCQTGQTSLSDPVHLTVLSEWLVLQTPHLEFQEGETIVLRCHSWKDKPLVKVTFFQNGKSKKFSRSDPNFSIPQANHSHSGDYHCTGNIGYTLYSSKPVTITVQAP
Excerpt: (§1) These variants were expressed and purified by the method of Reference Example 1. These Fc variants are called PD variants. Interactions of each PD variant with FcγRIIa type R (allotype R131) and FcγRIIb were comprehensively evaluated by the method of Reference Example 2.

[1] = biological target: T2, human FcγRIIa type R (allotype R131) (human, UniProt P12318 36-217); assay: as above
T2 construct: also called FcγRIIaR; R-type FcγRIIa
T2 chain: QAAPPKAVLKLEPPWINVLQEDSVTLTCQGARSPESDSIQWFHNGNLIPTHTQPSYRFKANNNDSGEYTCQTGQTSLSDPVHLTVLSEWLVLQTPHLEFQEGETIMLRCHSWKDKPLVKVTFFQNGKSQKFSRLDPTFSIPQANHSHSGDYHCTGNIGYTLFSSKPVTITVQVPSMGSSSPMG
Excerpt: as §1

[2] = biological target: T3, FcγRIa extracellular domain, C-terminal His tag (human, UniProt P12314 16-292); assay: SPR (Biacore), antibody captured on chip, FcγR extracellular domain as analyte, 25 C
T3 construct: extracellular domain; not shown: His tag at the C terminus

[3] = biological target: T4, human FcγRIIa type R (allotype R131) extracellular domain with C-terminal His tag (human, UniProt P12318 34-217); assay: SPR (Biacore), captured antibody, FcγR analyte
T4 construct: also called FcγRIIaR
T4 chain: T2 chain

[4] = biological target: T5, human FcγRIIa type H (allotype H131) extracellular domain with C-terminal His tag (human, UniProt P12318 34-217); assay: SPR (Biacore), captured antibody, FcγR analyte
T5 construct: also called FcγRIIaH
T5 sequence: T2 chain with R133H

[5] = biological target: T6, FcγRIIb extracellular domain with C-terminal His tag (human, UniProt P31994 43-217); assay: SPR; KD for FcγRIIaH divided by KD for FcγRIIb
T6 construct: extracellular domain
T6 sequence (looked up): T1 sequence

[6] = biological target: T6, FcγRIIb extracellular domain with …; assay: SPR; KD for FcγRIIaR divided by KD for FcγRIIb
[7] = biological target: T7, FcγRIIa type H (allotype H131) extracellular domain with C-terminal His tag (human, UniProt P12318 34-217); assay: SPR (Biacore), antibody captured, FcγR as analyte
T7 construct: extracellular domain; also called FcγRIIaH; FcγRIIa H type
T7 sequence (looked up): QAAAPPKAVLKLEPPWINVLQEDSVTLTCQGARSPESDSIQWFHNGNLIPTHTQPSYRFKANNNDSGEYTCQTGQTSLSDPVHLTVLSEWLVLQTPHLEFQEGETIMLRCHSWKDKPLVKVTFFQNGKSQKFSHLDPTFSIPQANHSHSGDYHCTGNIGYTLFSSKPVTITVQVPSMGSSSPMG

[8] = biological target: T6, FcγRIIb extracellular domain with …; assay: SPR (Biacore), antibody captured, FcγR as analyte
[9] = biological target: T8, FcγRIIa type R (allotype R131) extracellular domain with C-terminal His tag (human, UniProt P12318 34-217); assay: SPR; KD of IL6R-B3/IL6R-L divided by KD of the variant
T8 construct: extracellular domain; also called FcγRIIaR; FcγRIIa R type
T8 sequence (looked up): T7 sequence (looked up) with H134R

[10] = biological target: T6, FcγRIIb extracellular domain with …; assay: as above
[11] = biological target: T9, human FcγRIIa type R (allotype R131) extracellular domain with C-terminal His tag (human, UniProt P12318 34-217); assay: SPR (Biacore), antibody captured, FcγR analyte
T9 construct: also called FcγRIIaR
T9 chain: T2 chain

[12] = biological target: T10, human FcγRIIIa type V (allotype V158) extracellular domain with C-terminal His tag (human, UniProt P08637 17-208); assay: SPR (Biacore), antibody captured, FcγR analyte
T10 construct: also called FcγRIIIaV
T10 sequence (P08637 other isoform, or with tags, fused parts or gaps): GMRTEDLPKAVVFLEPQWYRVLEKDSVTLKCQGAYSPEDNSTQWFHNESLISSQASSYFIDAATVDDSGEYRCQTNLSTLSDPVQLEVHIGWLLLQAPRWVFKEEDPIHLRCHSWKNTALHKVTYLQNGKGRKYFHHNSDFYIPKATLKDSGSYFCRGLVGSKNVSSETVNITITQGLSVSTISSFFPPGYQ

[13] = biological target: T11, human FcγRIa extracellular domain with C-terminal His tag (human, UniProt P12314 16-292); assay: SPR (Biacore), captured antibody, FcγR analyte
T11 construct: extracellular domain; also called FrgRIa
T11 sequence (P12314 16-292): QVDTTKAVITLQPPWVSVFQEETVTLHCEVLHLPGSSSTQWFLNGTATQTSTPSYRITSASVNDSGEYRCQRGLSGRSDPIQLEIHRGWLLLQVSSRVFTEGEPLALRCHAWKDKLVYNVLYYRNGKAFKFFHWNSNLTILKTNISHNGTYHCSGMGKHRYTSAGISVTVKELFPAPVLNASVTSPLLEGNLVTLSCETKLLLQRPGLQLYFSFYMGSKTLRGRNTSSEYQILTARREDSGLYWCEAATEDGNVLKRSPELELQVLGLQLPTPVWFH

[14] = biological target: T12, human FcγRIIa type R (allotype R131) extracellular domain with C-terminal His tag (human, UniProt P12318 34-217); assay: SPR (Biacore), captured antibody, FcγR analyte
T12 construct: extracellular domain; also called FcγRIIaR; FrgRIIaR
T12 sequence (looked up): T7 sequence (looked up) with H134R

[15] = biological target: T13, human FcγRIIa type H (allotype H131) extracellular domain with C-terminal His tag (human, UniProt P12318 34-217); assay: SPR (Biacore), captured antibody, FcγR analyte
T13 construct: extracellular domain; also called FcγRIIaH; FrgRIIaH
T13 sequence (looked up): T7 sequence (looked up)

[16] = biological target: T14, human FcγRIIIa type V (allotype V158) extracellular domain with C-terminal His tag (human, UniProt P08637 17-208); assay: SPR (Biacore), captured antibody, FcγR analyte
T14 construct: extracellular domain; also called FcγRIIIaV; FrgRIIIaV
T14 sequence (P08637 17-208 F176V): as the sequence (P08637 other isoform, or with tags, fused parts or gaps) above, with S179A counted along it

[17] = biological target: T15, human FcγRIIIa type V (allotype V158) extracellular domain with C-terminal His tag (human, UniProt P08637 17-208); assay: SPR (Biacore), antibody captured, FcγR analyte
T15 construct: extracellular domain; also called FcγRIIIaV; FcγRIIIa V type; not shown: His tag at the C terminus
T15 sequence (P08637 17-208 F176V): as the sequence (P08637 other isoform, or with tags, fused parts or gaps) above, with S179A counted along it

[18] = biological target: T16, human FcγRIIb extracellular domain with C-terminal His tag (human, UniProt P31994 43-217); assay: SPR (Biacore), captured antibody, FcγR analyte
T16 construct: extracellular domain; also called FrgRIIb
T16 sequence (looked up): T1 sequence

[19] = biological target: T17, human FcγRIIb extracellular domain with C-terminal His tag (human, UniProt P31994 43-217); assay: SPR (Biacore); parent is IL6R-B3/IL6R-L
T17 construct: extracellular domain; not shown: His tag at the C terminus
T17 sequence (looked up): T1 sequence

[20] = biological target: T17, human FcγRIIb extracellular domain with …; assay: ratio of SPR KDs, FcγRIIaH over FcγRIIb
[21] = biological target: T17, human FcγRIIb extracellular domain with …; assay: ratio of SPR KDs, FcγRIIaR over FcγRIIb
[22] = biological target: T18, human FcγRIIa type H (allotype H131) extracellular domain with C-terminal His tag (human, UniProt P12318 34-217); assay: SPR (Biacore), antibody captured, FcγR analyte
T18 construct: extracellular domain; also called FcγRIIaH; not shown: His tag at the C terminus
T18 sequence (looked up): T7 sequence (looked up)

[23] = biological target: T17, human FcγRIIb extracellular domain with …; assay: SPR (Biacore), antibody captured, FcγR analyte
[24] = biological target: T19, human FcγRIa extracellular domain with C-terminal His tag (human, UniProt P12314 16-292); assay: SPR (Biacore), antibody captured, FcγR analyte
T19 construct: not shown: His tag at the C terminus
T19 sequence (P12314 16-292): as the sequence (P12314 16-292) above

T3 sequence (P12314 16-292): as above

B1: IL6R-F652/IL6R-L (antibody, human IgG1, kappa)
heavy: QVQLQESGPGLVKPSETLSLTCAVSGHSISHDHAWSWVRQPPGEGLEWIGFISYSGITNYNPSLQGRVTISRDNSKNTLYLQMNSLRAEDTAVYYCARSLARTTAMDYWGEGTLVTVSSASTKGPSVFPLAPSSKSTSGGTAALGCLVKDYFPEPVTVSWNSGALTSGVHTFPAVLQSSGLYSLSSVVTVPSSSLGTQTYICNVNHKPSNTKVDKKVEPKSCDKTHTCPPCPAPELLGGDSVFLFPPKPKDTLYISRTPEVTCVVVDVSHEDPEVKFNWYVDGVEVHNAKTKPREEQYNSTYRVVSVLTVLHQDWLNGKEYKCKVSNKALPAPIEKTISKAKGQPREPQVYTLPPSRDELTKNQVSLTCLVKGFYPSDIAVEWESNGQPENNYKTTPPVLDSDGSFFLYSKLTVDKSRWQQGNVFSCSVMHEALHYHYTQKSLSLSP
light: not shown
notes: copies: 2 + 2
Human FcγRIIb
  relative binding activity: 100 IL6R-F652/IL6R-L = 100
[1]
  relative binding activity: 100 IL6R-F652/IL6R-L = 100

B2: IL6R-BP182/IL6R-L (antibody, human IgG1, kappa, name in EU numbering)
heavy: B1 heavy with E235D, Y254M, P273G, Y298D, A332K, Y436N, K441E
light: not shown
notes: copies: 2 + 2
[2]
  Kd: 0.02 µM

B3: IL6R-BP514/IL6R-L (antibody, human IgG1, kappa, name in EU numbering)
heavy: B1 heavy with E235D, G239D, Y254M, H270E, P273G, E274F, Y436N, K441E
light: not shown
notes: copies: 2 + 2
[3]
  Kd: 3 µM

B4: IL6R-BP470/IL6R-L (antibody, human IgG1, kappa, name in EU numbering)
heavy: B1 heavy with E235D, G239D, Y254M, H270D, P273G, Y298D, A332R, E335T, Y436N, K441E
light: not shown
notes: copies: 2 + 2
[4]
  Kd: 10 µM

B5: IL6R-BP494/IL6R-L (antibody, human IgG1, kappa, name in EU numbering)
heavy: B1 heavy with G239D, Y254M, S269A, H270E, P273G, Y298D, A332R, Y436N, K441E
light: not shown
notes: copies: 2 + 2
[5]
  KD(IIaH)/KD(IIb): 821
[6]
  KD(IIaR)/KD(IIb): 38.6
[7]
  Kd: 54 µM
[8]
  Kd: 0.0065 µM
[9]
  KD(IIaR) OF PARENT POLYPEPTIDE/KD(IIaR) OF ALTERED POLYPEPTIDE: 4.3
[10]
  KD(IIb) OF PARENT POLYPEPTIDE/KD(IIb) OF ALTERED POLYPEPTIDE: 471

B6: IL6R-BP112/IL6R-L (antibody, human IgG1, kappa, name in EU numbering)
heavy: B1 heavy with Y254M, P273G, Y436N, K441E
light: not shown
notes: Alterations introduced into IL6R-B3; also called P238D/P271G; copies: 2 + 2
[11]
  Kd: 3.5 µM
[12]
  Kd: 69 µM

B7: IL6R-BP195/IL6R-L (antibody, human IgG1, kappa, name in EU numbering)
heavy: QVQLQESGPGLVKPSETLSLTCAVSGHSISHDHAWSWVRQPPGEGLEWIGFISYSGITNYNPSLQGRVTISRDNSKNTLYLQMNSLRAEDTAVYYCARSLARTTAMDYWGEGTLVTVSSASTKGPSVFPLAPSSKSTSGGTAALGCLVKDYFPEPVTVSWNSGALTSGVHTFPAVLQSSGLYSLSSVVTVPSSSLGTQTYICNVNHKPSNTKVDKKVEPKSCDKTHTCPPCPAPDYLGDDSVFLFPPKPKDTLMISRTPEVTCVVVDVSDEDGEVKFNWYVDGVEVHNAKTKPREEQDNSTYRVVSVLTVLHQDWLNGKEYKCKVSNAALPKPIEKTISKAKGQPREPQVYTLPPSRDELTKNQVSLTCLVKGFYPSDIAVEWESNGQPENNYKTTPPVLDSDGSFFLYSKLTVDKSRWQQGNVFSCSVMHEALHNHYTQESLSLSP
light: not shown
notes: Alterations introduced into IL6R-B3, EU numbering; copies: 2 + 2
[13]
  relative binding activity: 68 % of IL6R-BF648/IL6R-L binding
[14]
  relative binding activity: 661 % of IL6R-BF648/IL6R-L binding
[15]
  relative binding activity: 344 % of IL6R-BF648/IL6R-L binding
[16]
  relative binding activity: 221 % of IL6R-BF648/IL6R-L binding

B8: IL6R-BP231/IL6R-L (antibody, human IgG1, kappa, name in EU numbering)
heavy: B7 heavy with D235E, Y236L, A328K, K332R
light: not shown
notes: EU numbering; copies: 2 + 2
[17]
  Kd: 40 µM

B9: IL6R-BP198/IL6R-L (antibody, human IgG1, kappa, name in EU numbering)
heavy: B7 heavy with D239G, D298Y
light: not shown
notes: as for B7
[13]
  relative binding activity: 104 % of IL6R-BF648/IL6R-L binding
[14]
  relative binding activity: 449 % of IL6R-BF648/IL6R-L binding
[15]
  relative binding activity: 188 % of IL6R-BF648/IL6R-L binding
[18]
  relative binding activity: 164 % of IL6R-BF648/IL6R-L binding
[16]
  relative binding activity: 157 % of IL6R-BF648/IL6R-L binding

B10: IL6R-BP217/IL6R-L (antibody, human IgG1, kappa, name in EU numbering)
heavy: B7 heavy with D235E, Y236L, S269Q, A328K
light: not shown
notes: EU numbering; copies: 2 + 2
[17]
  Kd: 60 µM

B11: IL6R-BP198/IL6R-L (antibody, human IgG1, kappa, name in EU numbering)
heavy: B7 heavy with D239G, D298Y
light: not shown
notes: EU numbering; copies: 2 + 2
[19]
  KD(IIb) of the parent polypeptide/KD(IIb) of altered polypeptide: 15.7 fold
[20]
  KD(IIaH)/KD(IIb): 102
[21]
  KD(IIaR)/KD(IIb): 11

B12: IL6R-BP202/IL6R-L (antibody, human IgG1, kappa, name in EU numbering)
heavy: B7 heavy with D235E, Y236L, D270H, D298Y, K332R
light: not shown
notes: EU numbering; copies: 2 + 2
[22]
  Kd: 92 µM
[23]
  Kd: 0.054 µM

B13: IL6R-BP195/IL6R-L (antibody, human IgG1, kappa, name in EU numbering)
heavy: B7 heavy
light: not shown
notes: EU numbering; copies: 2 + 2
[19]
  KD(IIb) of the parent polypeptide/KD(IIb) of altered polypeptide: 62.3 fold
[20]
  KD(IIaH)/KD(IIb): 201
[21]
  KD(IIaR)/KD(IIb): 18.2
[24]
  Kd: 0.026 µM
